# From publication doi:10.1101/2024.02.23.581731 (bioRxiv, 2024)
# “And” between values parts separate entries of the source, which are not always exact repeats. Equal entries are not always repeated. Where two headings read alike, the source gives them in different places.
# B1: mouse wild-type 5-HT3A receptor (receptor, UniProt P23979 24-489, looked up)
# chain: SRRRATQARDTTQPALLRLSDHLLANYKKGVRPVRDWRKPTTVSIDVIMYAILNVDEKNQVLTTYIWYRQYWTDEFLQWTPEDFDNVTKLSIPTDSIWVPDILINEFVDVGKSPNIPYVYVHHRGEVQNYKPLQLVTACSLDIYNFPFDVQNCSLTFTSWLHTIQDINITLWRSPEEVRSDKSIFINQGEWELLEVFPQFKEFSIDISNSYAEMKFYVIIRRRPLFYAVSLLLPSIFLMVVDIVGFCLPPDSGERVSFKITLLLGYSVFLIIVSDTLPATAIGTPLIGVYFVVCMALLVISLAETIFIVRLVHKQDLQRPVPDWLRHLVLDRIAWILCLGEQPMAHRPPATFQANKTDDCSGSDLLPAMGNHCSHVGGPQDLEKTPRGRGSPLPPPREASLAVRGLLQELSSIRHFLEKRDEMREVARDWLRVGYVLDRLLFRIYLLAVLAYSITLVTLWSIWHYS
# B2: human wild-type 5-HT3A receptor (receptor, UniProt P46098 24-478, looked up)
# chain: RRSRNTTRPALLRLSDYLLTNYRKGVRPVRDWRKPTTVSIDVIVYAILNVDEKNQVLTTYIWYRQYWTDEFLQWNPEDFDNITKLSIPTDSIWVPDILINEFVDVGKSPNIPYVYIRHQGEVQNYKPLQVVTACSLDIYNFPFDVQNCSLTFTSWLHTIQDINISLWRLPEKVKSDRSVFMNQGEWELLGVLPYFREFSMESSNYYAEMKFYVVIRRRPLFYVVSLLLPSIFLMVMDIVGFYLPPNSGERVSFKITLLLGYSVFLIIVSDTLPATAIGTPLIGVYFVVCMALLVISLAETIFIVRLVHKQDLQQPVPAWLRHLVLERIAWLLCLREQSTSQRPPATSQATKTDDCSAMGNHCSHMGGPQDFEKSPRDRCSPPPPPREASLAVCGLLQELSSIRQFLEKRDEIREVARDWLRVGSVLDKLLFHIYLLAVLAYSITLVMLWSIWQYA
# Tests used:
# cryo-EM structure [1] = biological target: the molecule itself; assay: cryo-EM structure
# cryo-EM structure [2] = biological target: the molecule itself; assay: cryo-EM structure; remark: listed apart in the source
Protein,stoichiometry N (cryo-EM structure [1]),stoichiometry N (cryo-EM structure [2])
B1,5,
B2,,5 and 4
